According to the Immune Epitope Database (IEDB):
pKd: −log10 of the molar value.

Key:
[1] = biological target: HLA-C*08:02; assay: IEDB peptide-MHC binding, purified MHC/direct/fluorescence; filed as Kd, often an IC50 or EC50 that approximates it; ≥ and ≤ were set here for values at or beyond the usual limits of such assays
[2] = biological target: HLA-C*05:01; assay: as above; settings: source organism: human gammaherpesvirus 4
[3] = biological target: HLA-A*26:01; assay: as above
[4] = biological target: HLA-A*26:02; assay: as above; settings: source organism: Bacillus anthracis str. A0465
[5] = biological target: HLA-B*46:01; assay: IEDB peptide-MHC binding, purified MHC/competitive/fluorescence; filed as Kd, often an IC50 or EC50 that approximates it; ≥ and ≤ were set here for values at or beyond the usual limits of such assays; settings: source organism: Bacillus anthracis str. A2012
[6] = biological target: HLA-A*69:01; assay: IEDB peptide-MHC binding, purified MHC/direct/fluorescence; filed as Kd, often an IC50 or EC50 that approximates it; ≥ and ≤ were set here for values at or beyond the usual limits of such assays
[7] = biological target: HLA-A*01:01; assay: as above
[8] = biological target: HLA-A*31:01; assay: as above; settings: source organism: Brucella abortus
[9] = biological target: HLA-B*15:01; assay: as above
[10] = biological target: HLA-B*58:01; assay: as above
[11] = biological target: HLA-B*27:05; assay: as above
[12] = biological target: HLA-A*02:01; assay: as above
[13] = biological target: HLA-B*40:01; assay: as above
[14] = biological target: HLA-B*07:02; assay: as above
[15] = biological target: HLA-A*11:01; assay: as above
[16] = biological target: HLA-B*08:01; assay: as above
[17] = biological target: HLA-A*03:01; assay: as above
[18] = biological target: HLA-B*44:02; assay: as above
[19] = biological target: HLA-B*73:01; assay: as above
[20] = biological target: HLA-B*51:01; assay: IEDB peptide-MHC binding, purified MHC/competitive/radioactivity; filed as Kd, often an IC50 or EC50 that approximates it; ≥ and ≤ were set here for values at or beyond the usual limits of such assays; settings: source organism: Vaccinia virus Copenhagen
[21] = biological target: HLA-A*31:01; assay: as above; settings: source organism: Vaccinia virus Copenhagen
[22] = biological target: HLA-B*54:01; assay: as above; settings: source organism: Vaccinia virus Copenhagen
[23] = biological target: HLA-B*35:01; assay: as above; settings: source organism: Vaccinia virus Copenhagen
[24] = biological target: HLA-A*33:01; assay: as above; settings: source organism: Vaccinia virus Copenhagen
[25] = biological target: HLA-A*68:01; assay: as above; settings: source organism: Vaccinia virus Copenhagen
[26] = biological target: HLA-B*07:02; assay: as above; settings: source organism: Vaccinia virus Copenhagen
[27] = biological target: HLA-A*11:01; assay: as above; settings: source organism: Vaccinia virus Copenhagen
[28] = biological target: HLA-B*53:01; assay: as above; settings: source organism: Vaccinia virus Copenhagen
[29] = biological target: HLA-A*03:01; assay: as above; settings: source organism: Vaccinia virus Copenhagen
[30] = biological target: HLA-A*02:01; assay: IEDB peptide-MHC binding, purified MHC/competitive/fluorescence; filed as Kd, often an IC50 or EC50 that approximates it; ≥ and ≤ were set here for values at or beyond the usual limits of such assays
[31] = biological target: HLA-A*30:01; assay: IEDB peptide-MHC binding, purified MHC/direct/fluorescence; filed as Kd, often an IC50 or EC50 that approximates it; ≥ and ≤ were set here for values at or beyond the usual limits of such assays; settings: source organism: Vibrio parahaemolyticus
[32] = biological target: HLA-C*15:02; assay: as above
[33] = biological target: HLA-A*02:03; assay: IEDB peptide-MHC binding, purified MHC/competitive/radioactivity; filed as Kd, often an IC50 or EC50 that approximates it; ≥ and ≤ were set here for values at or beyond the usual limits of such assays; settings: source organism: Vaccinia virus WR
[34] = biological target: HLA-A*02:02; assay: as above; settings: source organism: Vaccinia virus WR
[35] = biological target: HLA-A*02:06; assay: as above; settings: source organism: Vaccinia virus WR
[36] = biological target: HLA-B*48:01; assay: IEDB peptide-MHC binding, purified MHC/direct/fluorescence; filed as Kd, often an IC50 or EC50 that approximates it; ≥ and ≤ were set here for values at or beyond the usual limits of such assays
[37] = biological target: HLA-B*39:01; assay: IEDB peptide-MHC binding, purified MHC/competitive/fluorescence; filed as Kd, often an IC50 or EC50 that approximates it; ≥ and ≤ were set here for values at or beyond the usual limits of such assays; settings: source organism: Escherichia coli B171
[38] = biological target: HLA-B*27:05; assay: as above; settings: source organism: Escherichia coli B171
[39] = biological target: HLA-A*26:03; assay: IEDB peptide-MHC binding, purified MHC/direct/fluorescence; filed as Kd, often an IC50 or EC50 that approximates it; ≥ and ≤ were set here for values at or beyond the usual limits of such assays; settings: source organism: Vibrio parahaemolyticus AQ3810
[40] = biological target: HLA-C*03:03; assay: as above; settings: source organism: Burkholderia mallei SAVP1
[41] = biological target: HLA-A*02:12; assay: IEDB peptide-MHC binding, purified MHC/competitive/fluorescence; filed as Kd, often an IC50 or EC50 that approximates it; ≥ and ≤ were set here for values at or beyond the usual limits of such assays; settings: source organism: Burkholderia mallei SAVP1
[42] = source organism: Brucella abortus
[43] = source organism: Vibrio parahaemolyticus
[44] = source organism: Vaccinia virus Copenhagen
[45] = source organism: Listeria monocytogenes
[46] = source organism: Bacillus anthracis
[47] = source organism: Burkholderia mallei SAVP1

With ASDYSQGAF the pKd ([1]; source organism: human gammaherpesvirus 4) was ≥ 9.00 and the pKd [2] was ≥ 9.00.
FFLFPMAAY gave a pKd ([3]; source organism: Bacillus anthracis str. A0465) of 6.31, a pKd [4] of 8.70 and a pKd [5] of 7.01.
GRKTPLLCF was tested, and the pKd [6, 42] was ≤ 4.70, the pKd [7, 42] was ≤ 4.70 and the pKd [8] was ≤ 4.70. The pKd [9, 42] was ≤ 4.70, the pKd [3, 42] was ≤ 4.70 and the pKd [10, 42] was ≤ 4.70. The pKd ([11]; source organism: Brucella melitensis) was 6.03, the pKd [12, 42] was ≤ 4.70 and the pKd [13, 42] was ≤ 4.70. For the same sequence, the pKd [14, 42] was ≤ 4.70, the pKd [15, 42] was ≤ 4.70 and the pKd [16, 42] was ≤ 4.70. For the same sequence, the pKd [17, 42] was ≤ 4.70, the pKd [18, 42] was ≤ 4.70 and the pKd ([19]; source organism: Brucella suis 1330) was ≤ 4.70.
In the case of ILDDNLYKV, the pKd ([1]; source organism: Variola virus) was 6.42, the pKd [20] was ≤ 4.11 and the pKd [21] was ≤ 4.27. For the same sequence, the pKd [22] was ≤ 4.11, the pKd [23] was ≤ 4.11 and the pKd [24] was ≤ 4.11. The pKd [25] was ≤ 4.11, the pKd [26] was ≤ 4.11 and the pKd [27] was 5.56. The pKd [28] was ≤ 4.11, the pKd [29] was 4.91 and the pKd ([30]; source organism: Variola virus) was 9.15.
IRSCWRYRK was tested, and the pKd [6, 43] was ≤ 4.70, the pKd [7, 43] was ≤ 4.70 and the pKd [31] was 6.29. The pKd [9, 43] was ≤ 4.70, the pKd [3, 43] was ≤ 4.70 and the pKd [10, 43] was ≤ 4.70. For the same sequence, the pKd [11, 43] was 7.13, the pKd [12, 43] was ≤ 4.70 and the pKd [13, 43] was ≤ 4.70. For the same sequence, the pKd [14, 43] was ≤ 4.70, the pKd [15, 43] was 5.67 and the pKd [16, 43] was ≤ 4.70. The pKd [17, 43] was 5.10, the pKd [18, 43] was ≤ 4.70 and the pKd ([19]; source organism: Vibrio parahaemolyticus AQ3810) was 5.41.
For KLFTHDIML, the pKd [32, 44] was ≤ 4.70, the pKd [33] was 8.53 and the pKd [34] was 8.98. It also gave a pKd [35] of 8.32 and a pKd [30, 44] of 9.30.
With KRYKQMCTK the pKd [11, 45] was 6.75, the pKd [36, 45] was ≤ 4.70 and the pKd ([19]; source organism: Listeria monocytogenes serotype 4b str. H7858) was ≤ 4.70.
With QTNLYNLLY the pKd [37] was ≤ 4.70, the pKd [38] was ≤ 4.70 and the pKd ([30]; source organism: Escherichia coli B171) was 5.40.
QTWHGDAPY showed a pKd [39] of 6.56.
RRMMMRITE was tested, and the pKd [11, 46] was 6.55, the pKd [36, 46] was ≤ 4.70 and the pKd ([19]; source organism: Bacillus cereus B4264) was 5.94.
TSYPTAVQF showed a pKd ([32]; source organism: Pseudomonas aeruginosa PACS2) of 6.97.
In the case of YLDDPDLKY, the pKd ([6]; source organism: Homo sapiens) was 4.74, the pKd ([7]; source organism: Homo sapiens) was 7.18 and the pKd ([9]; source organism: Homo sapiens) was 6.36. The pKd ([1]; source organism: Xenopus laevis) was ≤ 4.70, the pKd ([12]; source organism: Homo sapiens) was 5.47 and the pKd ([15]; source organism: Homo sapiens) was ≤ 4.61.
YVTPRALEL was tested, and the pKd [1, 47] was 6.91, the pKd [40] was ≥ 9.00 and the pKd [41] was ≤ 5.00. The pKd [30, 47] was 5.76.
